The source of these data is patent US20100119588A1.

Where only a bound is given, the exact number is not on record here.

The target of the first experiment is hemagglutinin H1 on influenza virus A/Puerto Rico/8/34 strain (H1N1) (influenza virus A/Puerto Rico/8/34 (H1N1)) (UniProt P03452). The experiment is described as follows: cell-based or functional assay.
C18-s2(1-6) (C18-ARLPRT peptide amide) returned an IC50(µM), plaque assay, infection of MDCK cells of 3.5 µM.
Substance C18-s2(1-7) (C18-ARLPRTM peptide amide) came in with an IC50(µM), plaque assay, infection of MDCK cells of 7.1 µM.
The substance C18-s2(1-4) (C18-ARLP peptide amide) came in with an IC50(µM), plaque assay, infection of MDCK cells of 0.9 µM.
On the same count and under the same terms, to C18-s2(1-5) (C18-ARLPR peptide amide) belongs 3.1 µM; to “C18-s2(r1-8) (C18-VMTRPLRA peptide amide)”, 93 µM.
Still for that read-out and setting: to C18-s2(3-8) (C18-LPRTMV peptide amide) belongs over 100 µM.
C18-s2(2-8) (C18-RLPRTMV peptide amide) came in with an IC50(µM), plaque assay, infection of MDCK cells of 9.2 µM.
The substance C18-s2(4-8) (C18-PRTMV peptide amide) yielded an IC50(µM), plaque assay, infection of MDCK cells of over 100 µM.
The same measure, in the same setting: the result for C18-s2(1-2) (C18-AR peptide amide) reads over 100 µM; that for “C18-s2(8-15) (C18-VHPKPAQP peptide amide)”, 59 µM.
The same measure, in the same setting: the result for C18-s2(1-3) (C18-ARL peptide amide) reads over 100 µM; that for “C18-s2(5-11) (C18-RTMVHPK peptide amide)”, 11 µM.

A further experiment has the same target. The experiment in a line: cell-based or functional assay. This is another data set of the same source.
Substance C18-s2(r1-4) (C18-PLRA peptide amide) showed an IC50(µM), plaque assay, infection of MDCK cells of 0.41 µM.
Regarding C18-s2(r1-5) (C18-RPLRA peptide amide), the IC50(µM), plaque assay, infection of MDCK cells is 0.55 µM.
C18-s2(1-5) (C18-ARLPR peptide amide) yielded an IC50(µM), plaque assay, infection of MDCK cells of 0.35 µM.
As to “C18-s2(1-8) (C18-ARLPRTMV peptide amide)”, the IC50(µM), plaque assay, infection of MDCK cells came to 2.4 µM.
